Measured values published in patent US7998940B2, “Aptamers to von Willebrand factor and their use as thrombotic disease therapeutics” (Archemix Corp., priority 2004, dated 2011).
Like-named read-outs stand apart in the source and are kept apart here. Oligonucleotides are written 5' to 3', each unit as a sugar letter and its base; * is a phosphorothioate linkage, no mark a phosphodiester; rarer units and linkages stand in square brackets, end groups in braces. Plain capitals give the bases only. r = 2'-OH (RNA); f = 2'-fluoro

What was measured:
[1] = biological target: T1, human vWF A1 domain (SEQ ID NO 5) (Homo sapiens, UniProt P04275, T1381A); experiment: 3-point dot blot screen, human vWF A1 domain; format: binding; settings: 100 nM human vWF A1 domain
T1 sequence (P04275 with tags, fused parts or gaps T1381A): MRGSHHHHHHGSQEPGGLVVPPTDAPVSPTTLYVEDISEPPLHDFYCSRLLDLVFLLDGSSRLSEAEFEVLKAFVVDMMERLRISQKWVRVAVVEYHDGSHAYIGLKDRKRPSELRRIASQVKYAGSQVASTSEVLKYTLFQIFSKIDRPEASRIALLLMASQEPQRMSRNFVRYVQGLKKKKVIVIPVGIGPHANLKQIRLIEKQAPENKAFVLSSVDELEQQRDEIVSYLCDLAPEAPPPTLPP
In short: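 Values are ratios of aptamer fraction retained on nitrocellulose with 100 nM vWF A1 domain (human or rabbit) versus a no-protein control. Unique clones from rounds 9 and 12 pools were transcribed, desalted and 5'-32P labeled before this three-point dot blot screen.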

[2] = test system: rabbit vWF A1 domain (SEQ ID NO 6); experiment: 3-point dot blot screen, rabbit vWF A1 domain; format: binding; settings: 100 nM rabbit vWF A1 domain, ratio of fraction bound with target to without
Sequence of rabbit vWF A1 domain (SEQ ID NO 6) (as listed by the source): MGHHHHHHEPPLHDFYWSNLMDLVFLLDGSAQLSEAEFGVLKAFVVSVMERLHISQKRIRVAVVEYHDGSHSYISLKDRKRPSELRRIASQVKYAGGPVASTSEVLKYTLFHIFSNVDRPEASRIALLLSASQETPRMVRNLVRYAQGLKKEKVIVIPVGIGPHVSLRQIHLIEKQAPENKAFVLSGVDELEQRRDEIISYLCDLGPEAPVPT
In short: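 Rabbit vWF A1 domain binding was screened by dot blot using three conditions: no target protein, human vWF, and rabbit vWF A1 domain at 100 nM (20 nM in the screen run twice). Radiolabeled aptamer bound to nitrocellulose was quantified, and results are expressed as the ratio of bound fraction with protein to bound fraction without protein.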

[3] = biological target: T1, human vWF A1 domain (SEQ ID NO 5); experiment: dot blot KD determination, human vWF A1 domain
[4] = test system: full length human vWF binding to lyophilized platelets; experiment: Full length human von Willebrand Factor platelet binding assay (FACS); format: cell-based; settings: 5 nM full length human vWF, lyophilized platelets, botrocetin; both bounds in nM
Procedure: The amount of vWF bound to fixed platelets can be measured with an antibody to vWF. The fluorescence signal from bound antibody incubated with a fluorescein conjugated secondary antibody is then detected and quantified by flow cytometry. The ability of an aptamer of the invention to block vWF binding to platelets is correlated with a reduction in fluorescence signal.
Aptamer potency to block human vWF binding to lyophilized platelets was assessed by flow cytometric analysis. Titrations of aptamers (0 nM, 0.1 nM to 1000 nM) were pre-incubated briefly with 5 nM of full length human vWF in FACS buffer (PBS plus 0.5% bovine serum albumin) at room temperature in a volume of 50 uL. Another 50 uL containing 5 uL of lyophilized platelets plus 1 uL of 0.1 U/uL of botrocetin in FACS buffer was added to aptamer/vWF. This reaction was allowed to proceed for 15 minutes at 37 degrees C. after which 200 uL of FACS buffer was added. Platelets were collected by a 6 minute spin at 1470 RCF and the supernatant was discarded. The pellets were resuspended in 100 uL of FACS buffer containing a 1:100 dilution of anti-vWF antibody and were incubated at room temperature for 30 minutes. After dilution with 200 uL of FACS buffer, the platelets were spun at 1470 RCF for 6 minutes and the supernatant was discarded. The pellets were resuspended in a 1:100 solution of anti-IgG2a-FITC antibody and were incubated in the dark for 30 minutes at room temperature. The entire 100 uL was diluted into 200 uL of FACS buffer and analyzed immediately by flow cytometric analysis in the FACSCAN. Artifactual data from contaminating debris was eliminated from the analysis by drawing a gate around the population of single and aggregated platelets. Mean fluorescent intensity (“MFI”) readings were quantified for each sample analyzed by flow cytometry. Background MFI was subtracted from all data points. Percent inhibition was reported by calculating the percent value of binding of full length human vWF to platelets in the presence of aptamer at a given concentration relative to binding in the absence of any aptamer (see FIG. 7). IC50 values were determined by fitting the percent inhibition of vWF binding to platelets as a function of aptamer concentration to the equation: % inhibition=% inhibitionmax/(1+IC50/aptamer conc.)

[5] = DNA SELEX 1 aptamers, ratio of fraction bound with target to without
[6] = read-out: Human A1 KD, DNA SELEX 1 aptamers, competition dot blot, 100 nM protein, cold competitor titration
[7] = rRfY aptamers, ratio of fraction bound with target to fraction bound without target
[8] = read-out: human A1 KD, rRfY aptamers, 8 point titration of human vWF A1 domain

Molecule | Screen- Human/No Protein [1, 5] | Screen- Rabbit/No Protein ([2]; DNA SELEX 1 aptamers) | Kd [3, 6] | Screen- Human/No Protein [1, 7] | Screen- Rabbit/No Protein ([2]; rRfY aptamers) | Kd [3, 8] | Inhibition of full length hVWF binding in FACS assay, IC50 range [4]
AMX200.C11: DNA SELEX 1 aptamer clone (nucleic acid, DNA, backbone not given here, DNA SELEX 1 aptamer clone) DNA: CTACCTACGATCTGACTAGCGGAATGAGAGTGCTGATGGATTGCTCAGGTCTGCTGGCTGCTTACTCTCATGTAGTTCC | 6.00 | 3.64 | 26 nM | – | – | – | –
AMX199.F7: DNA SELEX 1 aptamer clone (nucleic acid, DNA, backbone not given here, DNA SELEX 1 aptamer clone) DNA: CTACCTACGATCTGACTAGCGGAATGAGAGTGCTGGTGGATTGCTCAGGTCTGCTGGCTGCTTACTCTCATGTAGTTCC | 5.47 | 5.00 | 22 nM | – | – | – | –
AMX200.D3: DNA SELEX 1 aptamer clone (nucleic acid, DNA, backbone not given here, DNA SELEX 1 aptamer clone) DNA: CTACCTACGATCTGACTAGCGCAATGAGGATGCTGATGGATTGCTCAGGTCTGCTGGCTGCTTACTCTCATGTAGTTCC | 2.68 | 2.41 | 36 nM | – | – | – | –
AMX199.B3: DNA SELEX 1 aptamer clone (nucleic acid, DNA, backbone not given here, DNA SELEX 1 aptamer clone) DNA: CTACCTACGATCTGACTAGCGGAATGAGAATGCTGATGGATTGCTCAGGTCTGCTGGCTGCTTACTCTCATGTAGTTCC | 1.76 | 1.99 | 30 nM | – | – | – | –
AMX199.G10: DNA SELEX 1 aptamer clone (nucleic acid, DNA, backbone not given here, DNA SELEX 1 aptamer clone) DNA: CTACCTACGATCTGACTAGCGGAATGAGAATGTTGGTGGATTGCTCAGGTCTGCTGGCTGCTTACTCTCATGTAGTTCC | 4.97 | 2.66 | 22 nM | – | – | – | –
AMX199.C2: DNA SELEX 1 aptamer clone (nucleic acid, DNA, backbone not given here, DNA SELEX 1 aptamer clone) DNA: CTACCTACGATCTGACTAGCGGAATGAGAATGCTGGTGGATTGCCCAGGTCTGCTGGCTGCTTACTCTCATGTAGTTCC | 5.09 | 4.61 | 17 nM | – | – | – | –
AMX199.D11: DNA SELEX 1 aptamer clone (nucleic acid, DNA, backbone not given here, DNA SELEX 1 aptamer clone) DNA: CTACCTACGATCTGACTAGCGGAATGAGAATGCTGGTGGATTGCTCAGGTCTGCTGGCTGCTTACTCTCATGTAGTTCC | 4.19 | 3.42 | 30 nM | – | – | – | –
AMX199.B7: DNA SELEX 1 aptamer clone (nucleic acid, DNA, backbone not given here, DNA SELEX 1 aptamer clone) DNA: CTACCTACGATCTGACTAGCGGGATGAGAGTGCTGGTGGATTGCTCAGGTCTGCTGGCTGCTTACTCTCATGTAGTTCC | 4.08 | 3.65 | 29 nM | – | – | – | –
AMX200.F11: DNA SELEX 1 aptamer clone (nucleic acid, DNA, backbone not given here, DNA SELEX 1 aptamer clone) DNA: CTACCTACGATCTGACTAGCGGAATGAGGATGCTGGTGGATTGCTCAGGTCTGCTGGCTGCTTACTCTCATGTAGTTCC | 3.83 | 3.25 | 34 nM | – | – | – | –
AMX199.C4: DNA SELEX 1 aptamer clone (nucleic acid, DNA, backbone not given here, DNA SELEX 1 aptamer clone) DNA: CTACCTACGATCTGACTAGCGGAATGAGGATGCTGATGGATTGCACAGGTCTGCTGGCTGCTTACTCTCATGTAGTTCC | 3.60 | 2.85 | 34 nM | – | – | – | –
AMX201.G9: rRfY aptamer clone (nucleic acid) rGrGrArGfCrGfCrAfCfUfCrArGfCfCrAfCfUrArAfCrGrGfCfUrGrAfUfCfUfCrArGrGrAfCfUrArArAfUrArGfUfCrArAfCrArArGrGrAfUrGfCrGfUfUfUfCrGrAfCfCfUfCfUfCfUrGfCfUrArGfC | – | – | – | 2.06 | 2.11 | 182 nM | –
AMX201.G1: rRfY aptamer clone (nucleic acid) rGrGrArGfCrGfCrAfCfUfCrArGfCfCrAfCrGfCfUfCrGrGfUrGrGrGrGrArArAfUfUfUfUrArGfCfCfUrArAfUfUrGrGfCfUrAfCfUfUrGfUrGfCrGfUfUfUfCrGrAfCfCfUfCfUfCfUrGfCfUrArGfC | – | – | – | 2.14 | 2.20 | 190 nM | no activity
AMX198.E5: rRfY aptamer clone (nucleic acid) rGrGrArGfCrGfCrAfCfUfCrArGfCfCrAfCfUfUfCrGrAfCfUfUfUfCrAfUrGfUfCfUrGrArArGfUfCfCfCfUrGfCrArGfUrGfCrGrArGrArGrAfCrGfUfUfUfCrGrAfCfCfUfCfUfCfUrGfCfUrArGfC | – | – | – | 1.60 | 1.56 | 172 nM | –
AMX201.H1: rRfY aptamer clone (nucleic acid) rGrGrArGfCrGfCrAfCfUfCrArGfCfCrAfCfUfUfUrAfCrGrGfUrGrArArArGfUfCfUfCfUfCrGrGrGrGfUfUfCfCrGrArGfUfUrAfCrGrGfUrGfCrGfUfUfUfCrGrAfCfCfUfCfUfCfUrGfCfUrArGfC | – | – | – | 2.61 | 2.46 | 189 nM | –
AMX198.A10: rRfY aptamer clone (nucleic acid) rGrGrArGfCrGfCrAfCfUfCrArGfCfCrAfCfCrArGfUfUrAfUrGfCfUrGrGfCfUfUfUrGrGfUfCfUfUfUrGrAfCfUrGfUfCfUrGrArGfUrGfUfUfCrGfUfUfUfCrGrAfCfCfUfCfUfCfUrGfCfUrArGfC | – | – | – | 1.26 | 5.74 | 1860 nM | –
AMX198.G1: rRfY aptamer clone (nucleic acid) rGrGrArGfCrGfCrAfCfUfCrArGfCfCrAfCrArAfCrAfCfUrArAfUrGrGrGrGrArArArGfUfUfCrArArGrGrAfUfUfCfUfUrGrAfCfCrGrGfUrGfCrGfUfUfUfCrGrAfCfCfUfCfUfCfUrGfCfUrArGfC | – | – | – | 1.89 | 1.90 | 45 nM | no activity
AMX198.E11: rRfY aptamer clone (nucleic acid) rGrGrArGfCrGfCrAfCfUfCrArGfCfCrAfCrGrGfUrArAfCrAfUfUrGfUfUfUfCfCrGrGfCrGrAfUfUfCfUfUfUrGrArAfCrGfCfCrGfUfCrGfUrGrGfUfUfUfCrGrAfCfCfUfCfUfCfUrGfCfUrArGfC | – | – | – | 1.03 | 2.37 | 1060 nM | –
